For the test, the target named is recombinant human EPHA2 ectodomain (Homo sapiens, UniProt P29317). The experiment in a line: BLI.
Sequence of recombinant human EPHA2 ectodomain (P29317 24-537): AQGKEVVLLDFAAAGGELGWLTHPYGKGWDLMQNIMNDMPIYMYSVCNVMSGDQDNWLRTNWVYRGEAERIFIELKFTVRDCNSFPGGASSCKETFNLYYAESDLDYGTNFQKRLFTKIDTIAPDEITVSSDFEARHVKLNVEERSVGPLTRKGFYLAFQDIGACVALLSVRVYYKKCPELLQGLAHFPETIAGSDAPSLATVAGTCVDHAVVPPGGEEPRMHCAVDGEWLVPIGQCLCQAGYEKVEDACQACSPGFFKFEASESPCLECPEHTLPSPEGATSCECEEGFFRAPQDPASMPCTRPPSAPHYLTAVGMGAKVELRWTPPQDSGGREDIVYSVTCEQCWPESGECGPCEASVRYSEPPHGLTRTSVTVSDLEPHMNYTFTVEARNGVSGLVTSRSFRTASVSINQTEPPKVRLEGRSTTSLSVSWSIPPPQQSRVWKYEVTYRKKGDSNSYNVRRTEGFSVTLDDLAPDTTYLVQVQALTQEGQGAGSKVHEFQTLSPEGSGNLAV

B1: anti-EPHA2 Fab A2-3 (Fab, V domains shown)
VH: EVQLVESGGGLVQPGGSLRLSCAASGFNISYYYMHWVRQAPGKGLEWVASIYPSYSYTSYADSVKGRFTISADTSKNTAYLQMNSLRAEDTAVYYCARGGVVSWAHPAASYYVYGAMDYWGQGTLVTVSS
VL: DIQMTQSPSSLSASVGDRVTITCRASQSVSSAVAWYQQKPGKAPKLLIYSASSLYSGVPSRFSGSRSGTDFTLTISSLQPEDFATYYCQQAVWSGYPITFGQGTKVEIK
As to B1, the binding result is “binds”.

B2: anti-EPHA2 Fab A2-4 (Fab, V domains shown)
VH: EVQLVESGGGLVQPGGSLRLSCAASGFNISSYYMHWVRQAPGKGLEWVASISPSYSYTYYADSVKGRFTISADTSKNTAYLQMNSLRAEDTAVYYCARGWSFVGMDYWGQGTLVTVSS
VL: DIQMTQSPSSLSASVGDRVTITCRASQSVSSAVAWYQQKPGKAPKLLIYSASSLYSGVPSRFSGSRSGTDFTLTISSLQPEDFATYYCQQGAPWSPITFGQGTKVEIK
For the molecule B2, the binding result is given as “binds”.

The record behind these values is article PMC8253144 (mAbs, 2021).
